B1: CLCN6 (parent)
chain: TGLVGLFVDFFVRLFTQLKFGVVQ
B2: FAM46C (parent)
chain: VRSRLEEAGIKVHDVRLNGSAAGH

Variants of: B1
Assay: protein stability index of a GFP-peptide fusion (GPS, HEK-293T) (PSI 1-6); higher = more stable
Conditions: c terminus: a fixed tail appended
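Note: lentivirally expressed fusions sorted by FACS into six bins by GFP to DsRed ratio, PSI derived from sequencing read proportions per bin multiplied by bin number.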

Point of comparison: G21P, protein stability index 2.35. Against it:
- F15Y — higher, 2.73
- F15P — higher, 2.86
- F15N — higher, 2.67
- F15C — lower, 2.2
- F15S — higher, 2.76
- F15M — lower, 1.77
- F15V — higher, 2.72
- F15K — lower, 2.12
- F15Q — higher, 3.33
- F15R — lower, 2.27
- F15I — higher, 3.25
- F15L — lower, 1.96
- F15W — higher, 3.46
- F15H — higher, 2.71
- F15T — higher, 2.51
- F15A — lower, 1.96
- F15D — higher, 2.88
- F15G — higher, 2.95
- L18F — higher, 2.46
- L18N — higher, 3.66
- L18H — higher, 3.39
- L18C — higher, 2.36
- L18S — lower, 2.03
- L18A — lower, 1.97
- L18D — lower, 2.25
- L18W — lower, 1.66
- L18G — lower, 2.21
- L18Y — higher, 3.06
- L18I — higher, 2.7
- L18R — higher, 2.74
- L18V — lower, 1.98
- L18P — higher, 2.63
- L18K — lower, 2.02
- L18T — higher, 2.75
- L18M — higher, 2.48
- L14W — higher, 2.8
- L14Y — lower, 2.25
- V23K — higher, 2.45
- V23D — higher, 2.41
- V23W — higher, 3.3
- V23F — higher, 2.98
- V23S — higher, 2.73
- V23H — lower, 1.81
- V23M — higher, 2.68
- V23G — lower, 2.18
- V23T — higher, 2.36
- V23E — lower, 1.94
- V23Y — higher, 2.51
- V23A — lower, 2.27
- V23R — higher, 3.09
- V23I — lower, 2.23
- V23Q — higher, 2.77
- V23C — higher, 2.78
- V23N — lower, 2
- V23P — lower, 1.97
- V23L — higher, 2.92
- Q17G — lower, 1.77
- Q17F — higher, 2.44
- Q17P — lower, 2.08
- Q17C — lower, 2.01
- Q17E — lower, 2
- Q17A — higher, 2.38
- Q17S — higher, 2.81
- Q17M — lower, 2.09
- Q17I — lower, 1.79
- Q17K — higher, 2.48
- Q17V — lower, 2.14
- Q17N — higher, 2.44
- Q17D — lower, 1.81
- Q17R — higher, 3.5
- Q17W — higher, 3.5
- Q17H — lower, 2.26
- Q17T — lower, 2.12
- Q17L — higher, 2.43
- Q17Y — lower, 2.06
- F20V — higher, 2.84
- F20C — higher, 3.79
- F20E — higher, 3.61
- F20R — higher, 4.55
- F20H — higher, 2.58
- F20M — higher, 2.77
- F20A — higher, 3.03
- F20S — higher, 3.86
- F20I — higher, 2.97
- F20W — higher, 2.63
- F20Q — higher, 3.83
- F20L — higher, 2.96
- F20P — lower, 2.12
- F20Y — higher, 2.55
- F20D — higher, 4.13
- F20N — higher, 3.99
- F20G — higher, 2.89
- F20K — higher, 4.3
- F20T — higher, 3.48
- K19F — lower, 1.89
- K19Q — higher, 2.89
- K19T — lower, 2.33
- K19D — higher, 3.05
- K19E — higher, 4.38
- K19V — higher, 2.66
- K19N — lower, 2.21
- K19R — lower, 2.17
- K19H — higher, 3.23
- K19G — lower, 1.98
- K19A — higher, 2.84
- K19S — higher, 2.92
- K19Y — higher, 2.85
- K19P — lower, 1.91
- K19M — higher, 3.13
- K19L — higher, 2.56
- K19W — higher, 3.05
- V22N — lower, 1.25
- V22E — higher, 3.23
- V22H — lower, 1.92
- V22W — higher, 2.72
- V22Q — higher, 2.48
- V22C — lower, 1.87
- V22G — lower, 1.72
- V22P — lower, 2.07
- V22F — higher, 2.6
- V22M — higher, 2.58
- V22S — lower, 2.33
- V22Y — higher, 2.36
- V22I — higher, 2.84
- V22L — higher, 2.5
- V22R — lower, 2.34
- V22T — lower, 2.18
- V22A — lower, 1.77
- V22K — lower, 2.26
- Q24V — lower, 1.71
- Q24S — higher, 2.94
- Q24F — lower, 1.18
- Q24W — higher, 2.36
- Q24H — lower, 2.07
- Q24Y — lower, 1.74
- Q24I — higher, 2.66
- Q24D — higher, 2.46
- Q24N — higher, 2.55
- Q24T — lower, 1.6
- Q24G — lower, 2.32
- Q24P — lower, 1.88
- Q24E — lower, 2.08
- Q24A — lower, 1.66
- Q24C — lower, 1.26
- Q24L — lower, 2.14
- Q24M — lower, 1.9
- Q24K — higher, 3.16
- Q24R — higher, 3.77
- T16D — higher, 2.42
- T16I — higher, 2.41
- T16S — higher, 2.91
- T16V — lower, 1.78
- T16Y — lower, 1.98
- T16N — higher, 3.55
- T16Q — higher, 3
- T16R — higher, 3.85
- T16E — lower, 1.75
- T16L — lower, 2.02
- T16G — higher, 2.81
- T16W — higher, 3.32
- T16A — higher, 2.43
- T16M — the same, 2.35
- T16H — higher, 2.78
- T16C — lower, 1.99
- T16K — higher, 2.76
- T16F — lower, 2.04
- T16P — lower, 1.8
- G21A — higher, 3.26
- G21L — higher, 3.33
- G21D — higher, 2.38
- G21F — higher, 3.79
- G21C — lower, 1.86
- G21W — higher, 3.59
- G21E — lower, 2.3
- G21N — higher, 2.38
- G21K — higher, 3.7
- G21I — higher, 2.94
- G21V — higher, 3
- G21H — higher, 3.06
- G21T — higher, 2.4
- G21R — higher, 3.56
- G21M — higher, 3.39
- G21Y — higher, 3.39
- G21S — higher, 3.08
- G21Q — higher, 2.77

Variants of: B2
Assay: as above
Conditions: c terminus: a fixed tail appended

Point of comparison: A8K, protein stability index 3.38. Against it:
- I10R — higher, 3.41
- I10V — higher, 4.24
- I10M — higher, 3.78
- I10C — lower, 2.89
- I10P — higher, 4.56
- I10A — higher, 3.63
- I10Y — lower, 1.75
- I10G — higher, 4.5
- I10S — higher, 3.9
- I10F — lower, 2.12
- I10T — higher, 3.78
- R4S — lower, 3
- R4A — lower, 1.2
- R4P — higher, 4.24
- R4Y — lower, 1.81
- R4C — lower, 2.72
- R4E — higher, 4.73
- R4I — lower, 2.53
- R4K — lower, 2.27
- R4G — lower, 3.25
- R4W — lower, 2.33
- R4Q — higher, 3.52
- R4T — higher, 3.71
- R4F — lower, 1.89
- R4H — lower, 3.26
- R4N — lower, 2.47
- K11F — lower, 1.51
- K11E — lower, 2.89
- K11A — higher, 3.94
- K11C — lower, 2.73
- K11H — lower, 1.99
- K11G — lower, 3.13
- K11I — lower, 1.63
- L5A — higher, 4.34
- L5Y — lower, 3.04
- L5C — higher, 3.68
- L5N — higher, 4.03
- L5T — higher, 4.59
- L5V — higher, 3.7
- L5G — higher, 4.21
- L5D — higher, 4.35
- L5K — higher, 3.97
- L5W — higher, 3.49
- L5S — higher, 4.34
- L5Q — higher, 5.12
- L5R — higher, 4
- L5E — higher, 4.38
- G9Y — lower, 2.51
- G9R — higher, 3.88
- G9S — higher, 3.9
- G9D — higher, 3.89
- G9M — lower, 3.15
- G9L — lower, 2.26
- G9I — lower, 1.44
- G9Q — higher, 3.88
- G9K — lower, 2.75
- G9T — lower, 2.97
- G9C — lower, 3.03
- G9A — lower, 2.76
- G9V — lower, 2.88
- G9N — higher, 3.91
- G9W — lower, 2.81
- G9H — higher, 4.57
- G9P — higher, 3.67
- R2D — higher, 4.25
- R2H — lower, 2.4
- R2P — higher, 3.89
- R2A — lower, 3.04
- R2W — lower, 2.28
- R2C — lower, 2.3
- R2Y — lower, 2.95
- R2T — higher, 3.82
- R2V — lower, 2.13
- R2M — lower, 2.33
- R2S — higher, 4.37
- R2F — lower, 2.04
- R2E — higher, 3.85
- R2L — lower, 2.34
- R2Q — lower, 2.58
- R2G — lower, 3.36
- R2I — lower, 2.15
- V1T — higher, 4.25
- V1H — higher, 4.02
- V1D — higher, 4.33
- V1R — higher, 4.11
- V1P — higher, 4.38
- V1N — higher, 3.5
- V1Y — higher, 3.57
- V1F — lower, 2.56
- V1Q — higher, 4.59
- V1A — lower, 3.16
- V1K — higher, 3.62
- V1M — lower, 2.6
- V1L — lower, 1.33
- V1E — higher, 3.44
- V1S — higher, 4.18
- E6W — lower, 1.64
- E6N — higher, 3.54
- E6I — lower, 2.54
- E6M — lower, 1.71
- E6S — lower, 2.7
- E6H — lower, 2.9
- E6F — lower, 2.46
- E6Y — lower, 2.1
- E6Q — lower, 3.22
- E6R — lower, 2.59
- E6P — higher, 3.71
- E6D — lower, 3.09
- E6G — lower, 3.06
- E6T — lower, 2.44
- E7T — lower, 2.51
- E7C — lower, 1.47
- E7R — lower, 3.32
- E7H — lower, 2.37
- E7S — lower, 2.5
- E7F — lower, 2.49
- E7G — lower, 3.06
- E7I — lower, 2.48
- E7K — lower, 2.45
- E7Y — lower, 2.8
- E7P — higher, 3.78
- E7W — lower, 1.99
- S3N — lower, 1.77
- S3G — lower, 2.91
- S3P — higher, 4.33
- S3L — lower, 1.28
- S3F — lower, 1.69
- S3H — higher, 3.76
- S3T — lower, 1.68
- S3W — lower, 2.05
- S3M — lower, 1.53
- S3V — lower, 1.69
- S3Y — lower, 1.53
- S3Q — lower, 1.79
- S3K — lower, 1.37
- A8I — lower, 1.66
- A8Y — lower, 1.13
- A8E — higher, 4.46
- A8P — higher, 3.88
- A8F — lower, 1.85
- A8H — lower, 3.12
- A8M — lower, 2.58
- A8T — lower, 3.2
- A8R — lower, 1.96
- A8D — higher, 4.49
- A8N — lower, 3.17
- A8W — lower, 2.19
